In patent publication US20190275133A1:

Target: IL-2Rαβ (UniProt P01589)
Assay: in vitro binding affinity against IL-2 as a standard (Example 2: SPR, Biacore T-100, receptor-Fc captured, EC50 of RU against concentration)

UniProt P01589, sequence (P01589 22-240 limits assumed): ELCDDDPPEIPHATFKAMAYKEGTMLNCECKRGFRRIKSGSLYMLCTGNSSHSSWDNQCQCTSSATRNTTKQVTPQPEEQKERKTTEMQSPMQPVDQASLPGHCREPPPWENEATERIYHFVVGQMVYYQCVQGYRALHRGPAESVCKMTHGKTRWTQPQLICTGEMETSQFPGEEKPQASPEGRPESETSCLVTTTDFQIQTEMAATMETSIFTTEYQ

fold decrease in affinity relative to IL-2: 60 fold
Substance: RSLAIL-2 (multiPEGylated recombinant human IL-2 with the aldesleukin sequence; composition of primarily 4-mers, 5-mers and 6-mers of releasably attached mPEG2-C2-fmoc-20kD) (from UniProt P60568 22-153) (ligand)
